B1: 2B04, anti-SARS-CoV-2 mAb (IgG) (antibody, V domains shown)
VH: QVQLKQSGPGLVAPSQSLSITCTVSGFSLINYAISWVRQPPGKGLEWLGVIWTGGGTNYNSALKSRLSISKDNSKSQVFLKMNSLQTDDTARYYCARKDYYGRYYGMDYWGQGTSVTVS
VL: QAVVTQESALTTSPGETVTLTCRSSTGAVTTSNYANWVQEKPDHLFTGLIGGTNNRAPGVPARFSGSLIGDKAALTITGAQTEDEAIYFCALWYNNHWVFGGGTKLTVL
B2: 2H04, anti-SARS-CoV-2 mAb (IgG) (antibody, V domains shown)
VH: EVQLQQSGAELVKPGASVKMSCKASGYTFTSYWITWVKQRPGQGLEWIGDIYPGSGSTKYNEKFRSEATLTVDTSSTTAYMQLSSLTSEDSAVYYCARWDFYGSRTFDYWGQGTTLTVSS
VL: DIVLTQSPAILSVSPGERVSFSCRASQNIGTIIHWYQQRTNGSPRLLIKYASESVSGIPSRFSGSGSGTDFTLSINSVESEDIADYYCQQSSSWPLTFGAGTKLEL

What was measured:
SARS-CoV RBD = SARS-CoV RBD (SARS-CoV, strain , UniProt P59594); assay: BLI
[1] = biological target: Recombinant SARS-CoV-2 RBD protein (E. coli) (SARS-CoV-2, UniProt P0DTC2); assay: BLI

Binder	binding result (SARS-CoV RBD)	Kd [1]	half-life of dissociation [1]
B1	no binding	1.05 nM	23.7 min
B2	–	40.1 nM	1.27 min

Reference: publication PMC8498651 (Cell Reports, 2021)
